“Also recorded” adds a separate entry of the source.
B1: SBTI: soybean trypsin inhibitor, purchased from Sigma Chemical (protein, UniProt P01070 25-205, looked up)
Trypsin inhibitor A: DFVLDNEGNPLENGGTYYILSDITAFGGIRAAPTGNERCPLTVVQSRNELDKGIGTIISSPYRIRFIAEGHPLSLKFDSFAVIMLCVGIPTEWSVVEDLPEGPAVKIGENKDAMDGWFRLERVSDDEFNNYKLVFCPQQAEDDKCGDIGISIDHDDGTRRLVVSKNKPLVVQFQKLDKESL

Key:
[1] = target: T1, plasma kallikrein (Homo sapiens, UniProt P03952); test: Peptidase (amidolytic) activity of purified plasma kallikrein, chromogenic substrate, OD 405 nm; format: biochemical; conditions: for % Residual activity, Plasma Kallikrein: substrate AGLTR-pNA; for Inhibition of purified plasma kallikrein activity, in words: text on Tables 2 and 3, concentrations as there
T1 construct: The light chain of kallikrein contains the enzymatic domain; purchased Calbiochem-Novabiochem Corp (La Jolla, Calif.)
T1 sequence (P03952 391-638 limits assumed): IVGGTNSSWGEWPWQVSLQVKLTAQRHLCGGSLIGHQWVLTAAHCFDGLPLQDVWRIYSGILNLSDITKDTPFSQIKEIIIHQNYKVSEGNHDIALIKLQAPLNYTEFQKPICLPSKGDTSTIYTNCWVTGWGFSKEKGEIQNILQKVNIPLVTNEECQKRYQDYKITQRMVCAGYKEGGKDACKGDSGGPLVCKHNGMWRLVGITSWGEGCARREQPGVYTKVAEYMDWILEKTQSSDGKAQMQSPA
T1 sequence (P03952 20-390 partner limits assumed): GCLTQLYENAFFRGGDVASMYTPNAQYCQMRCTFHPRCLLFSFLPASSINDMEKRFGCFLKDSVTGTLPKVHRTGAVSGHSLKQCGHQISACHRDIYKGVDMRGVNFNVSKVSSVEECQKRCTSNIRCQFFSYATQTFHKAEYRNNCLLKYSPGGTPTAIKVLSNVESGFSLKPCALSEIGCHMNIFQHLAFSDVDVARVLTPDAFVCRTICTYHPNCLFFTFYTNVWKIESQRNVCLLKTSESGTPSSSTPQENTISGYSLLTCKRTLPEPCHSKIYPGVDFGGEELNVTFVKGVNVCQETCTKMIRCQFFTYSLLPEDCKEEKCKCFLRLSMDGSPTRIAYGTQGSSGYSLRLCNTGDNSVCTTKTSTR
Procedure: (§1) The peptidase activity in plasma samples or of the purified enzymes were routinely determined at 37° C. in a 96-well plate. Each well contained 0.5 mM substrate in 100 μl of Tris-buffered saline (TBS)-EDTA buffer (50 mM Tris/150 mM NaCl/10 mM EDTA, pH 7.8) and the reaction was monitored using a microplate reader (Titertek Multiscan, Labsystems, Needham Heights, Mass.).
(§2) […] EDTA plasma samples from LTR were diluted 10 or 20-fold with TBS-EDTA. The chromogenic substrate AGLTR-pNA was used for all enzymes and LTR samples except C1s where the substrate S2288 was used. Based on the initial rate of increase in OD at 405 nm, the residual free enzyme level was calculated and expressed as a percentage of total activity without inhibitor added.
(§3) Ten-fold diluted normal EDTA plasma was added to each enzyme. […] LTR samples were 10 or 20-fold diluted with TBS-EDTA. The chromogenic substrate AGLTR-pNA was used for all enzymes and LTP samples except C1s where the substrate S2288 was used. Based on the initial rate of increase in OD at 405 nm, the residual free enzyme was calculated and expressed as a percentage of total activity determined without inhibitor added.

[2] = target: T2, C1s (Homo sapiens, UniProt P09871); test: Peptidase (amidolytic) activity of purified C1s, chromogenic substrate, 96-well plate, OD 405 nm; format: biochemical; conditions: for % Residual activity, C1s: substrate S2288; for Inhibition of C1s, in words: text on Tables 2 and 3, concentrations as there
T2 construct: purchased Advanced Research Technologies (San Diego, Calif.)
T2 sequence (P09871 438-688 limits assumed): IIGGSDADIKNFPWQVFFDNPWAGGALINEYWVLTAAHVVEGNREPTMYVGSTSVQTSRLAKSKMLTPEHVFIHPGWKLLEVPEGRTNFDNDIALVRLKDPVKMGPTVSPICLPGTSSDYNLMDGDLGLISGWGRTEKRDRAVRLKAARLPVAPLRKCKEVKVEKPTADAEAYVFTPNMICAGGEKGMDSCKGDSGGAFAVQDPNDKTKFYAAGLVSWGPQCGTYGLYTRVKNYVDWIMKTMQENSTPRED
T2 sequence (P09871 16-437 partner limits assumed): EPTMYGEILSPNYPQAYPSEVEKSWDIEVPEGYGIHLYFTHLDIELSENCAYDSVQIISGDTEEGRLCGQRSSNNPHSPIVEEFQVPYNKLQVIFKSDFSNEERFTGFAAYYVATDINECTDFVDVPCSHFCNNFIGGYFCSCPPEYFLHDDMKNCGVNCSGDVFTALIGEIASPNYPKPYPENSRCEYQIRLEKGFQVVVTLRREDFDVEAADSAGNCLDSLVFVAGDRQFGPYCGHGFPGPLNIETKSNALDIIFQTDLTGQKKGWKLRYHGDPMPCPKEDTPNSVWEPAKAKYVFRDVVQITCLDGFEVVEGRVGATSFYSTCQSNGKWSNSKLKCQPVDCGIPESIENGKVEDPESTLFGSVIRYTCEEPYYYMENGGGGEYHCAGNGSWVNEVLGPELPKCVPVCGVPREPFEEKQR
Procedure: as §1
(§4) The enzymes C1s (100 nM), plasm in (100 nM), thrombin (100 nM), plasma kallikrein (20 nM), β-FXIIa (100 nM), trypsin (16 nM) or LTR EDTA plasma samples were incubated for 60 min at 4° C. with TBS-EDTA buffer containing either LBTI (1 mg/ml), SBTI (I mg/ml), aprotinin (0.075 mg/ml), benzamidine (50 mM), or Futhan (0.1 mg/ml), before mixing with the substrate. EDTA plasma samples from LTR were diluted 10 or 20-fold with TBS-EDTA. The chromogenic substrate AGLTR-pNA was used for all enzymes and LTR samples except C1s where the substrate S2288 was used. Based on the initial rate of increase in OD at 405 nm, the residual free enzyme level was calculated and expressed as a percentage of total activity without inhibitor added.
(§5) Ten-fold diluted normal EDTA plasma was added to each enzyme. The enzymes C1s (100 nM), plasmin (100 nM), thrombin (100 nM), plasma kallikrein (20 nM), β-FXIIa (100 nM), trypsin (16 nM) or LTR EDTA plasma samples were incubated for 60 min at 4° C. with TBS-EDTA buffer containing either C1INH (40 μg/ml), bdellin (50 μg/ml), hirudin (50 U/ml), PPACK 11(10 μM), or CTI (100 μg/ml), before adding the substrate. LTR samples were 10 or 20-fold diluted with TBS-EDTA. The chromogenic substrate AGLTR-pNA was used for all enzymes and LTP samples except C1s where the substrate S2288 was used. Based on the initial rate of increase in OD at 405 nm, the residual free enzyme was calculated and expressed as a percentage of total activity determined without inhibitor added.

[3] = tested on: proteinase(s) in EDTA plasma from LTR (kallikrein-like peptidase); test: Peptidase activity in EDTA plasma from liver transplant recipients (LTR), chromogenic substrate, OD 405 nm; format: biochemical, human; conditions: for % Residual activity, LTR 1 / % Residual activity, LTR 2 / % Residual activity, LTR 3: substrate AGLTR-pNA; for Inhibition of the LTR plasma peptidase activity, in words: text on Tables 2 and 3, concentrations as there
Procedure: Blood samples were drawn into 5 ml EDTA tubes (Venoject; Terumo Corp., Elkton, Md.). The plasma was collected immediately by centrifugation at 2,000×g for 15 min at 4° C. The plasma samples were either processed immediately for analysis or stored at −70° C. Frozen samples were thawed at 4° C. prior to analysis.
as §1, §4, §5

[4] = target: T3, plasmin (Homo sapiens, UniProt P00747); test: Peptidase (amidolytic) activity of purified plasmin, chromogenic substrate, OD 405 nm; format: biochemical; conditions: for % Residual activity, Plasmin: substrate AGLTR-pNA; for Inhibition of plasmin amidolytic activity, in words: concentrations as there
T3 construct: purchased Calbiochem-Novabiochem Corp (La Jolla, Calif.)
T3 sequence (P00747 581-810 limits assumed, species assumed): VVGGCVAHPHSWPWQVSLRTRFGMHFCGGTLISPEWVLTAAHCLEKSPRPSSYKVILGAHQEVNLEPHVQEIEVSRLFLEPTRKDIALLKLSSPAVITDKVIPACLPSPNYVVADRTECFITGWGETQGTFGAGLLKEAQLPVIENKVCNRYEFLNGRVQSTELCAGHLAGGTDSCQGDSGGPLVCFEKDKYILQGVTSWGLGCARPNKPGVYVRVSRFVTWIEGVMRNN
T3 sequence (P00747 97-580 partner limits assumed, species assumed): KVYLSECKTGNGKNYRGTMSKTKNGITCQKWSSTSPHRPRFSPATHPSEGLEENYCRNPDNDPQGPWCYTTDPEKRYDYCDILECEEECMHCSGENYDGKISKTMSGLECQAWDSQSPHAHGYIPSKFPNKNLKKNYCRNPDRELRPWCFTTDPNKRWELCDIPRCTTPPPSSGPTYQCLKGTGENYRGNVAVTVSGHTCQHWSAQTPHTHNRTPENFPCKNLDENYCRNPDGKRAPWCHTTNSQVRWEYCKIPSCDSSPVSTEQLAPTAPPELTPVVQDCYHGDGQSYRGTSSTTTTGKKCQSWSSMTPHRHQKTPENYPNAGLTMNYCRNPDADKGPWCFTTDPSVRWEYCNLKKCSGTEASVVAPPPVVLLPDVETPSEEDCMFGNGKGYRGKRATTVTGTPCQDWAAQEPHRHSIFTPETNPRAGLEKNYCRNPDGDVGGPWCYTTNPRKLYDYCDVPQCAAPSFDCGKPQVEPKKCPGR
Procedure: as §1, §4, §5

[5] = target: T4, thrombin (Homo sapiens, UniProt P00734); test: Peptidase (amidolytic) activity of purified thrombin, chromogenic substrate, OD 405 nm; format: biochemical
T4 construct: purchased Calbiochem-Novabiochem Corp (La Jolla, Calif.)

[6] = target: T5, β-Factor XIIa (β-FXIIa) (Homo sapiens, UniProt P00748); test: Peptidase (amidolytic) activity of purified β-FXIIa, chromogenic substrate, OD 405 nm; format: biochemical; conditions: substrate AGLTR-pNA
T5 construct: β-Factor XIIa (β-FXIIa) was kindly provided by Dr. Mary J. Heeb; gift of Dr. Mary J. Heeb, The Scripps Research Institute
T5 sequence (P00748 373-615 limits assumed, other chains not shown): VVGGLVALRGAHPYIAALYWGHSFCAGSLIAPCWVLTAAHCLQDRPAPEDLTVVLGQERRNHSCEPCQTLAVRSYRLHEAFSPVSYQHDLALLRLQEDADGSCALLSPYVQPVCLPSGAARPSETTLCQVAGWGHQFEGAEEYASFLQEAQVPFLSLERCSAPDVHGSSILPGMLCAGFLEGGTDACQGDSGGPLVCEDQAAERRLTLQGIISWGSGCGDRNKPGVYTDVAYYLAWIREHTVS
Procedure: as §1, §2, §3

[7] = tested on: trypsin; test: Peptidase (amidolytic) activity of purified trypsin, chromogenic substrate, OD 405 nm; format: biochemical; conditions: Table 2; for Inhibition of trypsin amidolytic activity, in words: concentrations as there; for % Residual activity, Trypsin: trypsin 16 nM, substrate AGLTR-pNA, 60 min at 4° C. with LBTI 1 mg/ml, SBTI I mg/ml, aprotinin 0.075 mg/ml, benzamidine 50 mM or Futhan 0.1 mg/ml
Procedure: as §1, §4

[8] = Table 3, plasma kallikrein 20 nM with ten-fold diluted normal EDTA plasma added, 60 min at 4° C. with C1INH 40 μg/ml or PPACK 11 10 μM
[9] = Table 3, C1s 100 nM with ten-fold diluted normal EDTA plasma added, 60 min at 4° C. with C1INH 40 μg/ml or PPACK 11 10 μM
[10] = Table 3, LTR 1 EDTA plasma 10 or 20-fold diluted, 60 min at 4° C. with C1INH 40 μg/ml, bdellin 50 μg/ml, hirudin 50 U/ml, PPACK 11 10 μM or CTI 100 μg/ml
[11] = Table 3, LTR 2 EDTA plasma 10 or 20-fold diluted, 60 min at 4° C. with C1INH 40 μg/ml, bdellin 50 μg/ml, hirudin 50 U/ml, PPACK 11 10 μM or CTI 100 μg/ml
[12] = Table 3, LTR 3 EDTA plasma 10 or 20-fold diluted, 60 min at 4° C. with C1INH 40 μg/ml, bdellin 50 μg/ml, hirudin 50 U/ml, PPACK 11 10 μM or CTI 100 μg/ml
[13] = Table 3, thrombin 100 nM with ten-fold diluted normal EDTA plasma added, substrate AGLTR-pNA, 60 min at 4° C. with hirudin 50 U/ml or PPACK 11 10 μM
[14] = Table 2, plasmin 100 nM, 60 min at 4° C. with LBTI 1 mg/ml, SBTI I mg/ml, aprotinin 0.075 mg/ml, benzamidine 50 mM or Futhan 0.1 mg/ml
[15] = Table 2, thrombin 100 nM, substrate AGLTR-pNA, 60 min at 4° C. with LBTI 1 mg/ml, SBTI I mg/ml, aprotinin 0.075 mg/ml, benzamidine 50 mM or Futhan 0.1 mg/ml
[16] = Table 2, plasma kallikrein 20 nM, 60 min at 4° C. with LBTI 1 mg/ml, SBTI I mg/ml, aprotinin 0.075 mg/ml, benzamidine 50 mM or Futhan 0.1 mg/ml
[17] = Table 2, C1s 100 nM, 60 min at 4° C. with LBTI 1 mg/ml, SBTI I mg/ml, aprotinin 0.075 mg/ml, benzamidine 50 mM or Futhan 0.1 mg/ml, % of total activity without inhibitor
[18] = Table 2, LTR 1 EDTA plasma diluted 10 or 20-fold, 60 min at 4° C. with LBTI 1 mg/ml, SBTI I mg/ml, aprotinin 0.075 mg/ml, benzamidine 50 mM or Futhan 0.1 mg/ml
[19] = Table 2, LTR 2 EDTA plasma diluted 10 or 20-fold, 60 min at 4° C. with LBTI 1 mg/ml, SBTI I mg/ml, aprotinin 0.075 mg/ml, benzamidine 50 mM or Futhan 0.1 mg/ml
[20] = Table 2, LTR 3 EDTA plasma diluted 10 or 20-fold, 60 min at 4° C. with LBTI 1 mg/ml, SBTI I mg/ml, aprotinin 0.075 mg/ml, benzamidine 50 mM or Futhan 0.1 mg/ml
[21] = Table 2, β-FXIIa 100 nM, 60 min at 4° C. with LBTI 1 mg/ml, SBTI I mg/ml, aprotinin 0.075 mg/ml, benzamidine 50 mM or Futhan 0.1 mg/ml

Molecule	% Residual activity, Plasma Kallikrein [1, 8] [%]	Inhibition of purified plasma kallikrein activity, in words [1]	% Residual activity, C1s [2, 9] [%]	Inhibition of C1s, in words [2]	% Residual activity, LTR 1 [3, 10] [%]	% Residual activity, LTR 2 [3, 11] [%]	% Residual activity, LTR 3 [3, 12] [%]	Inhibition of the LTR plasma peptidase activity, in words [3]	% Residual activity, Thrombin [5, 13] [%]	Inhibition of trypsin amidolytic activity, in words [7]	% Residual activity, Trypsin [7] [%]	Inhibition of plasmin amidolytic activity, in words ([4]; Table 2)	% Residual activity, Plasmin [4, 14] [%]	% Residual activity, Thrombin [5, 15] [%]	% Residual activity, Plasma Kallikrein [1, 16] [%]	% Residual activity, C1s [2, 17] [%]	% Residual activity, LTR 1 [3, 18] [%]	% Residual activity, LTR 2 [3, 19] [%]	% Residual activity, LTR 3 [3, 20] [%]	% Residual activity, β-FXIIa [6, 21] [%]	other results
C1INH: human C1 esterase inhibitor, purchased from Sigma Chemical	37.0	caused only partial inhibition	37.8	only partially inhibited C1s	81.4	84.0	41.0	caused only partial inhibition													Inhibition of the LTR plasma peptidase activity, in words ([3]; listed as CINH): inhibited partially
D-Phe-Phe-Arg-chloromethylketone [PPACK II]	0.0	totally inhibited	82.2	failed to inhibit C1s	−0.2	0.6	2.7	totally inhibited; also recorded: substantially inhibited	0.7												% Residual activity, Plasmin ([4]; Table 3, plasmin 100 nM with ten-fold diluted normal EDTA plasma added, 60 min at 4° C. with bdellin 50 μg/ml or PPACK 11 10 μM): 9.2%; % Residual activity, β-FXIIa ([6]; Table 3, β-FXIIa 100 nM with ten-fold diluted normal EDTA plasma added, 60 min at 4° C. with PPACK 11 10 μM or CTI 100 μg/ml): 8.4%
Hirudin					100.4	99.5	104.1	failed to reduce the plasma peptidase activity; also recorded: not inhibited	2.6												Inhibition of thrombin by hirudin (FIG. 8), in words ([5]; 50 U/ml hirudin, substrate AGLTR-pNA, versus time at 37° C.): effectively inhibited; Inhibition of thrombin, in words ([5]; Table 3): a very effective thrombin inhibitor
aprotinin		efficiently inhibited		but not C1s				only partially effective		efficiently inhibited	4.8	efficiently inhibited	2.4	84.6	3.5	104.8	35.3	40.2	21.4	106.0	
B1		efficiently inhibited		but not C1s				only partially effective		efficiently inhibited	5.3	efficiently inhibited	3.7	46.7	2.2	123.6	44.2	61.9	28.8	109.1	

Reference: patent US20030087316A1, “Diagnostic markers of liver dysfunction” (priority 2001, published 2003)
